These results are taken from patent US20210071139A1.

Experiment [1] addresses TOX (UniProt Q66JW3). Briefly: anti-TOX IP from EL4 nuclear extract, LC-MS/MS, MiST vs IgG control.
Experiment [2] addresses TOX (UniProt Q66JW3). Briefly: TOX co-IP from EL4 nuclear extract, LC-MS/MS, MiST.

Values joined by “and” are separate entries in the source; they are usually repeats but may differ in a detail not shown here. Equal values may be shown once.

Utp11l, sequence (Q9CZJ1 whole entry): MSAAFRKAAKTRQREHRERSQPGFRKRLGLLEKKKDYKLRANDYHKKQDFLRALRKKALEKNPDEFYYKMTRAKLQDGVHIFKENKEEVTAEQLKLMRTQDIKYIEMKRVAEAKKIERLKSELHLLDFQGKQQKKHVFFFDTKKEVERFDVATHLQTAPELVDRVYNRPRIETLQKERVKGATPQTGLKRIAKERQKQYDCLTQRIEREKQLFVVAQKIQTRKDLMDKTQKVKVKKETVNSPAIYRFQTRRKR
TOX, sequence (Q66JW3 whole entry): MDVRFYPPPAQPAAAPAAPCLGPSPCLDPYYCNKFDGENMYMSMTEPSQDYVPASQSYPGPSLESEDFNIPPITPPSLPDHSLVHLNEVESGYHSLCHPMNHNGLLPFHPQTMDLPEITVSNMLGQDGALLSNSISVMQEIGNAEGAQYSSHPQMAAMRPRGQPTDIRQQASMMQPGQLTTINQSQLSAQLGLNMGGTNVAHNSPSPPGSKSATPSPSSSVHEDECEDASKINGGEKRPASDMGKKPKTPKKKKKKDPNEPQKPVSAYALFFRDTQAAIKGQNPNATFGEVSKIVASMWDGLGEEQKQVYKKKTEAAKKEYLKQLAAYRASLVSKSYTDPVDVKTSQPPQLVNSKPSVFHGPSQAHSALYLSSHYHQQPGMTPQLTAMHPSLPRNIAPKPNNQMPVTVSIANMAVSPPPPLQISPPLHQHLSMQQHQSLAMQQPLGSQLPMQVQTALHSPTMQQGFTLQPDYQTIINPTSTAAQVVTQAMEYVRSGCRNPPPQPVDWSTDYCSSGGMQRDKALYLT
Tmem160, sequence (Q9D938 97-188): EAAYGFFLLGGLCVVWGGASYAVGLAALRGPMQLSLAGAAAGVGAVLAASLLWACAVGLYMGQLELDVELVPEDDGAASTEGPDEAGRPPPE

In the experiment with TOX [1], Abcf1 (from UniProt Q6P542 1-837) came in with an Abundance of 1.12e-05, a MiST Score of 0.76, a Reproducibility of 0.747 and a Specificity of 0.773.

In the experiment with TOX [1], Abcf2 (from UniProt Q99LE6 1-628) yielded an Abundance of 2.89e-05, a MiST Score of 0.756, a Reproducibility of 0.917 and a Specificity of 0.69.

In the experiment with TOX [1], Actr5 (from UniProt Q80US4 1-605) returned an Abundance of 9e-06, a MiST Score of 0.753, a Reproducibility of 0.979 and a Specificity of 0.658.

Ap2a1 (from UniProt P17426 1-977): in the experiment with TOX [1], the Abundance came out at 2.47e-06, the MiST Score turned out to be 0.754, the Reproducibility was found to be 0.846 and the Specificity came to 0.719.

In the case of Bclaf1 (from UniProt Q8K019 1-919), in the experiment with TOX [1], the Abundance was 6.73e-05, the MiST Score was 0.756, the Reproducibility was 0.872 and the Specificity turned out to be 0.71.

Take Ccdc86 (from UniProt Q9JJ89 1-426): in the experiment with TOX [1], the Abundance worked out at 3.82e-05, the MiST Score worked out at 0.751, the Reproducibility is 0.964 and the Specificity is 0.662.

In the experiment with TOX [1], Cnot10 (from UniProt Q8BH15 2-744) returned an Abundance of 8.51e-06, a MiST Score of 0.751, a Reproducibility of 0.946 and a Specificity of 0.669.

Take Cwc15 (from UniProt Q9JHS9 2-229): in the experiment with TOX [1], the Abundance was 9.35e-05, the MiST Score came out at 0.756, the Reproducibility came out at 0.814 and the Specificity came to 0.736.

In the experiment with TOX [1], “Dld (from UniProt O08749 36-509) (enzyme)” came in with an Abundance of 1.87e-05, a MiST Score of 0.76, a Reproducibility of 0.898 and a Specificity of 0.704.

In the experiment with TOX [2], Dnajb6 (from UniProt O54946 1-365) yielded an Abundance of 2.48e-05, a MiST Score of 0.837, a Reproducibility of 0.944 and a Specificity of 0.796.

In the experiment with TOX [2], Dnajb11 (from UniProt Q99KV1 23-358) yielded an Abundance of 2.91e-05, a MiST Score of 0.839, a Reproducibility of 0.783 and a Specificity of 0.872.

As for Ebna1bp2 (from UniProt Q9D903 1-306), in the experiment with TOX [1], the Abundance came to 9.4e-05, the MiST Score is 0.752, the Reproducibility was determined as 0.984 and the Specificity was determined as 0.654.

In the case of Eif3a (from UniProt P23116 1-1344), in the experiment with TOX [1], the Abundance stood at 1.17e-05, the MiST Score turned out to be 0.764, the Reproducibility worked out at 0.795 and the Specificity was 0.757.

As for Gatad2a (from UniProt Q8CHY6 1-629), in the experiment with TOX [1], the Abundance was found to be 1.98e-05, the MiST Score worked out at 0.76, the Reproducibility came to 0.908 and the Specificity is 0.7.

In the experiment with TOX [1], Gatad2b (from UniProt Q8VHR5 1-594) showed an Abundance of 1.65e-05, a MiST Score of 0.752, a Reproducibility of 0.863 and a Specificity of 0.708.

In the experiment with TOX [2], “Gm20517; Med20 (from UniProt Q9R0X0 1-212)” displayed an Abundance of 2.2e-05, a MiST Score of 0.831, a Reproducibility of 0.472 and a Specificity of 1.

With Gnl2 (from UniProt Q99LH1 1-728), in the experiment with TOX [2], the Abundance turned out to be 7.98e-06, the MiST Score came out at 0.843, the Reproducibility is 0.894 and the Specificity came to 0.827.

In the experiment with TOX [2], Hsd17b10 (from UniProt O08756 2-261) displayed an Abundance of 1.27e-05, a MiST Score of 0.857, a Reproducibility of 0.557 and a Specificity of 1.

In the experiment with TOX [2], Lsg1 (from UniProt Q3UM18 1-644) displayed an Abundance of 2.9e-06, a MiST Score of 0.837, a Reproducibility of 0.886 and a Specificity of 0.822.

As for Mark2 (from UniProt Q05512 1-776), in the experiment with TOX [2], the Abundance was found to be 2.81e-06, the MiST Score is 0.842, the Reproducibility was determined as 0.891 and the Specificity amounted to 0.826.

With Mcm5 (from UniProt P49718 2-734), in the experiment with TOX [2], the Abundance is 4.18e-06, the MiST Score came to 0.85, the Reproducibility came to 0.757 and the Specificity was 0.9.

In the experiment with TOX [2], Mrpl3 (from UniProt Q99N95 41-348) registered an Abundance of 7.04e-05, a MiST Score of 0.857, a Reproducibility of 0.555 and a Specificity of 1.

In the experiment with TOX [2], Nob1 (from UniProt Q8BW10 1-403) displayed an Abundance of 2.4e-05, a MiST Score of 0.84, a Reproducibility of 0.955 and a Specificity of 0.796.

In the experiment with TOX [1], Nol7 (from UniProt Q9D7Z3 1-254) came in with an Abundance of 0.000128, a MiST Score of 0.757, a Reproducibility of 0.972 and a Specificity of 0.666.

On to Nop2 (from UniProt Q922K7 1-793), for which, in the experiment with TOX [2], the Abundance is 8.3e-05, the MiST Score is 0.844, the Reproducibility was found to be 0.981 and the Specificity turned out to be 0.789.

Take Nop14 (from UniProt Q8R3N1 1-860): in the experiment with TOX [2], the Abundance turned out to be 1.27e-06, the MiST Score came out at 0.84, the Reproducibility is 0.501 and the Specificity turned out to be 1.

In the experiment with TOX [2], Nsf (from UniProt P46460 1-744) yielded an Abundance of 2.87e-06, a MiST Score of 0.838, a Reproducibility of 0.808 and a Specificity of 0.859.

For Orc1 (from UniProt Q9Z1N2 1-840), in the experiment with TOX [2], the Abundance turned out to be 1.58e-06, the MiST Score was 0.843, the Reproducibility was found to be 0.866 and the Specificity worked out at 0.839.

Orc3 (from UniProt Q9JK30 1-715): in the experiment with TOX [2], the Abundance worked out at 7.41e-07, the MiST Score is 0.848, the Reproducibility came to 0.528 and the Specificity is 1.

Pabpn1 (from UniProt Q8CCS6 2-302): in the experiment with TOX [1], the Abundance is 8.22e-05, the MiST Score worked out at 0.759, the Reproducibility turned out to be 0.992 and the Specificity is 0.66.

As for Paxbp1 (from UniProt P58501 1-919), in the experiment with TOX [1], the Abundance stood at 1.83e-06, the MiST Score was determined as 0.75, the Reproducibility amounted to 0.516 and the Specificity was 0.862.

In the experiment with TOX [1], Pnn (from UniProt O35691 2-725) gave an Abundance of 7.35e-05, a MiST Score of 0.762, a Reproducibility of 0.681 and a Specificity of 0.805.

With Pop1, in the experiment with TOX [1], the Abundance was found to be 2.18e-06, the MiST Score turned out to be 0.754, the Reproducibility is 0.906 and the Specificity amounted to 0.693.

In the experiment with TOX [1], Raver1 (from UniProt Q9CW46 2-748) yielded an Abundance of 4.89e-05, a MiST Score of 0.762, a Reproducibility of 0.839 and a Specificity of 0.734.

In the experiment with TOX [2], Rbm28 (from UniProt Q8CGC6 2-750) yielded an Abundance of 8.77e-06, a MiST Score of 0.855, a Reproducibility of 0.958 and a Specificity of 0.815.

In the experiment with TOX [2], Rrbp1 (from UniProt Q99PL5 1-1605) returned an Abundance of 1.36e-06, a MiST Score of 0.834, a Reproducibility of 0.675 and a Specificity of 0.913.

In the experiment with TOX [2], Samd1 (from UniProt D3YXK1 1-519) displayed an Abundance of 2.47e-06, a MiST Score of 0.829, a Reproducibility of 0.886 and a Specificity of 0.811.

Take Skap2 (from UniProt Q3UND0 1-358): in the experiment with TOX [2], the Abundance was 4.76e-06, the MiST Score came out at 0.845, the Reproducibility stood at 0.516 and the Specificity was 1.

In the experiment with TOX [2], Sorbs1 (from UniProt Q62417 1-1290) came in with an Abundance of 1.52e-05, a MiST Score of 0.829, a Reproducibility of 0.997 and a Specificity of 0.76.

As for Sptbn1 (from UniProt Q62261 2-2363), in the experiment with TOX [2], the Abundance is 1.19e-05 and 1.09e-05; the MiST Score came out at 0.84; the Reproducibility was determined as 0.996; the Specificity was 0.777.

Consider Sugp1 (from UniProt Q8CH02 1-643), for which, in the experiment with TOX [2], the Abundance was found to be 7.71e-06, the MiST Score was determined as 0.832, the Reproducibility stood at 0.906 and the Specificity amounted to 0.807.

For the substance Tmem160, in the experiment with TOX [2], the Abundance is 3.49e-05, the MiST Score is 0.846, the Reproducibility was found to be 0.94 and the Specificity is 0.812.

In the experiment with TOX [2], Tmem214 (from UniProt Q8BM55 2-687) gave an Abundance of 1.26e-06, a MiST Score of 0.85, a Reproducibility of 0.532 and a Specificity of 1.

As for Trrap (from UniProt Q80YV3 1-2565), in the experiment with TOX [2], the Abundance stood at 9.36e-08, the MiST Score came to 0.847, the Reproducibility is 0.524 and the Specificity was 1.

In the experiment with TOX [2], Utp11l displayed an Abundance of 4.22e-05, a MiST Score of 0.856, a Reproducibility of 0.553 and a Specificity of 1.

With Wdr82 (from UniProt Q8BFQ4 1-313), in the experiment with TOX [2], the Abundance was 0.00013, the MiST Score worked out at 0.846, the Reproducibility was determined as 0.951 and the Specificity is 0.807.

For the substance Zcchc8 (from UniProt Q9CYA6 2-709), in the experiment with TOX [2], the Abundance is 2.87e-06, the MiST Score was determined as 0.834, the Reproducibility is 0.483 and the Specificity is 1.

For the substance Zmym4 (from UniProt A2A791 2-1549), in the experiment with TOX [2], the Abundance is 1.92e-06, the MiST Score is 0.841, the Reproducibility was 0.503 and the Specificity was 1.
